Experimental data reported in patent US20180112001A1 (Regeneron, published 2018).
Where two headings read alike, the source gives them in different places.

B1: H1M7137N (antibody, mouse IgG1, V domains shown)
VH: QVQLQESGPGLVKPSETLSLTCTVSGGAINTYYWSWIRQPPGKGLEWIGYIYYRGNTNYNPSLRSRVTISVDTSKNQFFLKLRSVTVADSAVYFCARGWNYRAEYFQHWGQGTVVTVSS
VL: not shown
notes: Mouse IgG1 constant region (H1M)
B2: H3M9529N (antibody, mouse IgG3, V domains shown)
VH: QVQLQQWGAGLLKPSETLSLTCAVYGGSFSGFYWSWIRQPPGKGLEWIGEINHSGSAKYNPSLKNRVIISIDTSKNQFSLKLDSVTAADTAVYNCARQGWNFAIFDYWGQGTLVDVSS
VL: DIVMTQSPDSLAVSLGGRATINCKSSQSVLHSSYNKDHLAWYQQRPGQPPKLLIYWASTRESGVPDRFSGSGSGTDFTLTISSLQAEDVAVYYCQQYNILPPTFGQGTRVEIK
notes: Mouse IgG3 constant region (H3M)
B3: H1H8790P (antibody, human IgG1, V domains shown)
VH: EVQLVESGGGLVQPGGSLRLSCEASGFTFSNYAMSWVRQAPGKGLEWVSGMSGSGTYPYYADSVKGRFTISRDNSKNMLYLQMNSLRVKDTAVYYCAKDGVDTAMILDTFDLWGQGTMVTVSS
VL: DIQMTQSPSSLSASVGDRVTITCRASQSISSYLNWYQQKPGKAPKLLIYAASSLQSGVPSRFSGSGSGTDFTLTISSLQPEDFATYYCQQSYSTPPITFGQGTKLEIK
notes: Human IgG1 (H1H)
B4: BSMUC16/CD3-002 (bispecific antibody, V domains shown)
VH 1: QVQLVESGGGLVKPGGSLRLSCAASGFTFSNYYMSWVRQAPGKGLEWISYISGRGSTIFYADSVKGRITISRDNAKNSLFLQMNSLRAEDTAVYFCVKDRGGYSPYWGQGTLVTVSS
VH 2: EVQLVESGGGLVQPGRSLRLSCAASGFTFDDYSMHWVRQAPGKGLEWVSGISWNSGSIGYADSVKGRFTISRDNAKNSLYLQMNSLRAEDTALYYCAKDGSGYGKFYYYGMDVWGQGTTVTVSS
VL: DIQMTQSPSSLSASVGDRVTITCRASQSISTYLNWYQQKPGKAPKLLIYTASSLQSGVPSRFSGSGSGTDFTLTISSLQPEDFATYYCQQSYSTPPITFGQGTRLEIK
notes: Anti-MUC16 VH (H1H8767P), anti-CD3 VH (CD3-VH-G5), common light chain; also called anti-MUC16xCD3 bispecific antibody with CD3-VH-G5 arm
B5: H1H8767P (antibody, human IgG1, V domains shown)
VH: QVQLVESGGGLVKPGGSLRLSCAASGFTFSNYYMSWVRQAPGKGLEWISYISGRGSTIFYADSVKGRITISRDNAKNSLFLQMNSLRAEDTAVYFCVKDRGGYSPYWGQGTLVTVSS
VL: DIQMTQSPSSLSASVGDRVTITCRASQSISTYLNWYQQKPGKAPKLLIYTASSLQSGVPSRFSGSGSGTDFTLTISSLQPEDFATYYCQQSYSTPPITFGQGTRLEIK
notes: Human IgG1 (H1H)
B6: H3M9524N (antibody, mouse IgG3, V domains shown)
VH: QVQLQQWGAGLLKPSETLSLTCAVYGGSFSDYYWSWIRQPPGKGLEWIGEINHRGKTNYNPSLKSRVSISVDPSKNQFSLKLSSVTAADTAVYYCARQGWNYAIFDYWGQGILVPVSS
VL: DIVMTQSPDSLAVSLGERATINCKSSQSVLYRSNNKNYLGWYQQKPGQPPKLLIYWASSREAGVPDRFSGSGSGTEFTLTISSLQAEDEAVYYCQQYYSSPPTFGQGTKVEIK
notes: as for B2
B7: H3M9525N (antibody, mouse IgG3, V domains shown)
VH: QVQLQQWGAGLLKPSETLSLTCAVYGGSFSGYYWSWIRQPPGKGLEWIGEINHSGKTTYSPSLKSRVTISVDTSKSQFSLKLSSVTAADTAVYYCARQGLNYAIFDYWGQGTLVTVSS
VL: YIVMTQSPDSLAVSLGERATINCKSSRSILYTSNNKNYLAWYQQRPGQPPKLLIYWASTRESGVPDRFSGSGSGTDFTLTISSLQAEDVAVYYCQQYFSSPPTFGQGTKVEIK
notes: as for B2
B8: H1H8755P (antibody, human IgG1, V domains shown)
VH: EVQLVESGGGLVQPGRSLRLSCAASGFTFNDYAMHWVRQSPGKGLEWVSGIDWNGGSIDYADSVKGRFTISRDTAKNSLYLQMNSLKVEDTALYYCAKDIGHWNYIGGMDVWGQGTTVTVSS
VL: DIQMTQSPSSLSASVGDRVTITCRASQSINIYLNWYQQKPGKAPKFLIYAASSLQTGVPSRFSGSGSGTDFTLTISSLEPEDFATYYCQHSYSTPPITFGQGTRLEIK
notes: Human IgG1 (H1H)
B9: H1H8794P (antibody, V domains shown)
VH: QVQLVESGGGLVKPGGSLRLSCAASGFTFRDYSMSWIRQAPGKGLEWVSYVTFFNSAIYYADSVKGRFTISRDNAKNSLYLQMNSLRAEDTAVYYCAREREPIVGGFDYWGQGTLVTVSS
VL: DIQMTQSPSSLSASVGDRVTITCRASQSINSYLNWYQQKPGKAPKLLIYAASSLQGGVPSRFSGGGSGTDFTLTITSLQPEDFATFYCQQSYSSPPITFGQGTRLEIK
notes: Human IgG1 (H1H)
B10: H2M7135N (antibody, mouse IgG2, V domains shown)
VH: EVQLVESGGGLVQAGGSLRLSCAASGFTFSYHEMNWVRQAPGKGLEWVSYIGSRGTTKHYADPVKGRFTISRDNAKNSLYLQMNSLRAEDTAVYYCASEVGSILGYSMDVWGQGTTVTVSS
VL: DIQMTQSPSSLSASVGDRVTITCRASQSVSRYLNWCQQKPGKAPKLLTYAASSLQSGVPSRFSGSGSGTDFTLTISSLQPEDFAAYFCQQSYSTPPITFGQGTRLEIK
notes: Mouse IgG2 constant region (H2M)
B11: H1H8770P (antibody, human IgG1, V domains shown)
VH: QVQLVESGGGVVQPGRSLRLSCAASGFTFSDHGMHWVRQAPGKGLEWVAVISYHGSNKHYADSVKGRFTISRDNSKNALYLQMNSLRPEDTAMYYCAKDGYDFWNGYSLFDYWGQGTLVTVSS
VL: DIQMTQSPSSLSASVGDRVTITCRASQSISNYLNWYQQKPGKAPKLLIYTASNLLSGVPSRFSGSGSGTDFTLTISSLQPEDFATYYCQQSYSTPPITFGQGTKLEIK
notes: Human IgG1 (H1H)
B12: H1H8783P (antibody, human IgG1, V domains shown)
VH: QVQLVESGGGVVQPGRSLRLSCAASGFTFSDHAMHWVRQAPGKGLEWVAVISYHGTDKQYGDSVKGRFTISRDNSKNALYLQMNSLRPEDTAMYYCAKDGYDFWNAYSLFDYWGQGTLVTVSS
VL: DIQMTQSPSSLSASVGDRVTITCRASQSISNYLNWYQQKPGKAPKLLIYTASSLLSGVPSRFSGSGSGTDFTLTISSLQPEDFATYYCQQSYSTPPITFGQGTRLEIK
notes: Human IgG1 (H1H)
B13: H1M9528N (antibody, mouse IgG1, V domains shown)
VH: QMQLQESGPGLVKPSETLSLTCTVSGGSISSYYWNWIRQPPGKGLEWIGYIYYSGNNFNPSLKSRVTISVDTSKNQFSLKLSSVTAADTAVYYCARAFHWNYEFDYWGQGTLVTVSS
VL: EIVLTQSPGTLSLSPGERATLSCRASQSVSNNYLAWYQQKPGQAPRLLLYGASSRTTDIPDRFSGSGSGTDFTLTISRLEPEDFAVYYCQQYDNSPLTFGGGTKVEIR
notes: as for B1

Columns and labels:
[1] = molecular target: T1, soluble monomeric human MUC16, truncated format encompassing the last five SEA domains of Mucin-16 (human); assay: SPR Biacore, antibody captured, soluble monomeric hMUC16.mmh injected, 25C
T1 construct: also called hMUC16.mmh; MUC16 "nub"
T1 chain: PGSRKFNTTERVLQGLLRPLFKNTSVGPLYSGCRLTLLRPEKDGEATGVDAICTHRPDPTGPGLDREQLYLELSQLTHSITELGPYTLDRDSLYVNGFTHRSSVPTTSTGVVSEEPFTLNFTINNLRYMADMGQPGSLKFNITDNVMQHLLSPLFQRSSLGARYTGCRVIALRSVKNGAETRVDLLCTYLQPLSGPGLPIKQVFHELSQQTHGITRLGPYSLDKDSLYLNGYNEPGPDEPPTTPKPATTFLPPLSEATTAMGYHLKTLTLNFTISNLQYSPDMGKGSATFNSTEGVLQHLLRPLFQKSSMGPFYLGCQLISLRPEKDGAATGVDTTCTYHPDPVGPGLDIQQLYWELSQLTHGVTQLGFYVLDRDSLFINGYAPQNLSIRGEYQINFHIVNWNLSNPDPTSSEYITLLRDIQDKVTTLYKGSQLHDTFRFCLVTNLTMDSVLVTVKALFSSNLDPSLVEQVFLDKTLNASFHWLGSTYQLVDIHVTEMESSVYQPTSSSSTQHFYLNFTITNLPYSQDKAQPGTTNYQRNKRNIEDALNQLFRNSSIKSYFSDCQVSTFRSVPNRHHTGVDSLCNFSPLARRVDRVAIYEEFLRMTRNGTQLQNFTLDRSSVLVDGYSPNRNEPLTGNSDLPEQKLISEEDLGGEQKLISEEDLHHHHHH

[2] = molecular target: T2, human MUC16 (mucin 16), endogenously expressed on cells (human); assay: MSD electrochemiluminescence cell binding; RLU ratio OVCAR-3/SK-OV-3; Ab 1.9 nM
T2 construct: Endogenous MUC16 on OVCAR-3 / OVCAR3-Luc / PEO-1 / HPAC cells; also called hMUC16

[3] = molecular target: T2, human MUC16 (mucin 16), endogenously …; assay: MSD electrochemiluminescence cell binding; RLU ratio OVCAR-3/SK-OV-3; Ab 16.7 nM
[4] = molecular target: T1, soluble monomeric human MUC16, …; assay: SPR Biacore, antibody captured, soluble monomeric hMUC16.mmh injected, 25C
[5] = molecular target: T2, human MUC16 (mucin 16), endogenously …; assay: cell-based or functional assay
[6] = molecular target: T3, human CD3 on cells (Jurkat cells, human T cells) (human, UniProt P07766 23-207; P04234 22-171); assay: cell-based or functional assay
T3 sequence (P07766 23-207 limits assumed, chain 1 of 2): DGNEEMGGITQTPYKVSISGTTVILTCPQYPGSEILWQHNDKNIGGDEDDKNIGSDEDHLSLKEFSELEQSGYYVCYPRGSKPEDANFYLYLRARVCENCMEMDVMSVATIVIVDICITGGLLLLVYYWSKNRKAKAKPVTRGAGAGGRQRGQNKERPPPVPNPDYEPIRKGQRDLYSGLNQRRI
T3 sequence (P04234 22-171 limits assumed, chain 2 of 2): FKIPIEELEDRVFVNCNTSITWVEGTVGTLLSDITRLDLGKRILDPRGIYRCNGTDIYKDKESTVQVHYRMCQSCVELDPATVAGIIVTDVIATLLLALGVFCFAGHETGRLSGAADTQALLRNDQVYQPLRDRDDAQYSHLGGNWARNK

[7] = molecular target: T2, human MUC16 (mucin 16), endogenously …; assay: cell-based or functional assay; remark: listed apart in the source
[8] = molecular target: T3, human CD3 on cells (Jurkat cells, human …); assay: cell-based or functional assay; remark: listed apart in the source
[9] = molecular target: T3, human CD3 on cells (Jurkat cells, human …); assay: FACS binding titration on Jurkat cells
[10] = molecular target: T4, cynomolgus monkey CD3 on cynomolgus T cells (cynomolgus monkey, UniProt Q95LI5 22-198); assay: FACS binding titration on cynomolgus T cells
T4 construct: whole, on cells; also called cynomolgus CD3
T4 sequence (Q95LI5 22-198): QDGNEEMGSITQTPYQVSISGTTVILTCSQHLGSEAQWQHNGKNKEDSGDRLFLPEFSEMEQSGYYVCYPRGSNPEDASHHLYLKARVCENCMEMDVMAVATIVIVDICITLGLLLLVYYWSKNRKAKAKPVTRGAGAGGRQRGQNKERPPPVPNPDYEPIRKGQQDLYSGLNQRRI

[11] = molecular target: T2, human MUC16 (mucin 16), endogenously …; assay: FACS binding titration on PEO-1 (MUC16+) cells
[12] = molecular target: T2, human MUC16 (mucin 16), endogenously …; assay: FACS binding titration on OVCAR3 (MUC16+) cells
[13] = molecular target: T2, human MUC16 (mucin 16), endogenously …; assay: MSD electrochemiluminescence cell binding; RLU ratio OVCAR-3/SK-OV-3; Ab 16.7 nM; NS = Non-Specific, ratio <2.5-fold

| Binder | Ratio: anti-MUC16 Binding OVCAR-3/SK-OV-3 [2] [ratio] | Ratio: anti-MUC16 Binding OVCAR-3/SK-OV-3 [3] [ratio] | binding result [1] | Kd [4] [nM] | koff [4] [s⁻¹] | kon [4] [M⁻¹ s⁻¹] | t1/2 [4] [min] | also measured |
| --- | --- | --- | --- | --- | --- | --- | --- | --- |
| B1 | 77 | 29 | – | – | – | – | – | Kd [1]: 1.72 nM; koff [1]: 9.09e-05 s⁻¹; kon [1]: 53000 M⁻¹ s⁻¹; t ½ [1]: 127 min |
| B2 | 143 | 99 | no binding | – | – | – | – | – |
| B3 | 8 | 3 | – | 7.53 | 0.000761 | 101000 | 15 | – |
| B4 | – | – | – | – | – | – | – | OVCAR3 cell depletion EC50 [5]: 0.0306 nM; T cell activation (CD69 upregulation) EC50 [6]: 0.0101 nM; PEO-1 cell depletion EC50 [7]: 0.0675 nM; T cells activation (CD25 upregulation) EC50 [8]: 0.0889 nM; T cells activation (CD69 upregulation) EC50 [8]: 0.0134 nM; EC50 [9]: 301 nM; binding result [10]: no binding (tested: serial dilution from 66.6 nM to 0.001 nM); EC50 [11]: 3.13 nM; EC50 [12]: 2.69 nM |
| B5 | 4 | – | – | 3.58 | 0.000418 | 117000 | 28 | Ratio: anti-MUC16 Binding OVCAR-3/SK-OV-3 [13]: < 2.5 ratio |
| B6 | 81 | 57 | no binding | – | – | – | – | – |
| B7 | 137 | 51 | no binding | – | – | – | – | – |
| B8 | 13 | 5 | – | 0.286 | 0.000149 | 522000 | 77 | – |
| B9 | 8 | 3 | – | 0.771 | 0.000279 | 362000 | 41 | – |
| B10 | 30 | 5 | – | – | – | – | – | Kd [1]: 4.27 nM; koff [1]: 0.000218 s⁻¹; kon [1]: 51000 M⁻¹ s⁻¹; t ½ [1]: 53 min |
| B11 | 9 | 3 | – | 1.25 | 0.000308 | 247000 | 38 | – |
| B12 | 11 | 4 | – | 0.614 | 0.000107 | 174000 | 108 | – |
| B13 | 153 | 120 | no binding | – | – | – | – | – |
